Data reported in patent US20230279451A1, “METHODS FOR THE BIOCATALYTICAL MANUFACTURING OF DIHYDROCHALCONES” (SYMRISE AG, priority 2019, published 2023).
“Also recorded” adds a separate entry of the source.

B1: L92Q: variant of the O-methyltransferase from Myxococcus xanthus (MxSafC_L92Q) (protein)
chain: MIHHVELTQSVLQYIRDSSVRDNDILRDLREETSKLPLRTMQIPPEQGQLLSLLVRLIGARKTLEVGVFTGYSTLCAALALPADGRVIACDQSEEWVSIARRYWQRAGVADRIEVRLGDAHHSLEALVGSEHRGTFDLAFIDADKESYDFYYEHALRLVRPGGLIILDNTLWSGKVADPSVVGDPETDSLRRINAKLLTDERVDLSMLPIADGLTLARKR
modifications: MxSafC_L92Q
B2: D119P: variant of the O-methyltransferase from Myxococcus xanthus (MxSafC_D119P) (protein)
chain: MIHHVELTQSVLQYIRDSSVRDNDILRDLREETSKLPLRTMQIPPEQGQLLSLLVRLIGARKTLEVGVFTGYSTLCAALALPADGRVIACDLSEEWVSIARRYWQRAGVADRIEVRLGPAHHSLEALVGSEHRGTFDLAFIDADKESYDFYYEHALRLVRPGGLIILDNTLWSGKVADPSVVGDPETDSLRRINAKLLTDERVDLSMLPIADGLTLARKR
modifications: MxSafC_D119P
B3: W96A: variant of the O-methyltransferase from Myxococcus xanthus (MxSafC_W96A) (protein)
chain: MIHHVELTQSVLQYIRDSSVRDNDILRDLREETSKLPLRTMQIPPEQGQLLSLLVRLIGARKTLEVGVFTGYSTLCAALALPADGRVIACDLSEEAVSIARRYWQRAGVADRIEVRLGDAHHSLEALVGSEHRGTFDLAFIDADKESYDFYYEHALRLVRPGGLIILDNTLWSGKVADPSVVGDPETDSLRRINAKLLTDERVDLSMLPIADGLTLARKR
modifications: MxSafC_W96A
B4: T40P: variant of the O-methyltransferase from Myxococcus xanthus (MxSafC_T40P) (protein)
chain: MIHHVELTQSVLQYIRDSSVRDNDILRDLREETSKLPLRPMQIPPEQGQLLSLLVRLIGARKTLEVGVFTGYSTLCAALALPADGRVIACDLSEEWVSIARRYWQRAGVADRIEVRLGDAHHSLEALVGSEHRGTFDLAFIDADKESYDFYYEHALRLVRPGGLIILDNTLWSGKVADPSVVGDPETDSLRRINAKLLTDERVDLSMLPIADGLTLARKR
modifications: MxSafC_T40P
B5: S173H: variant of the O-methyltransferase from Myxococcus xanthus (MxSafC_S173H) (protein)
chain: MIHHVELTQSVLQYIRDSSVRDNDILRDLREETSKLPLRTMQIPPEQGQLLSLLVRLIGARKTLEVGVFTGYSTLCAALALPADGRVIACDLSEEWVSIARRYWQRAGVADRIEVRLGDAHHSLEALVGSEHRGTFDLAFIDADKESYDFYYEHALRLVRPGGLIILDNTLWHGKVADPSVVGDPETDSLRRINAKLLTDERVDLSMLPIADGLTLARKR
modifications: MxSafC_S173H
B6: T40P/S173H: double mutant variant of the O-methyltransferase from Myxococcus xanthus (MxSafC_T40P_S173H) (protein)
chain: MIHHVELTQSVLQYIRDSSVRDNDILRDLREETSKLPLRPMQIPPEQGQLLSLLVRLIGARKTLEVGVFTGYSTLCAALALPADGRVIACDLSEEWVSIARRYWQRAGVADRIEVRLGDAHHSLEALVGSEHRGTFDLAFIDADKESYDFYYEHALRLVRPGGLIILDNTLWHGKVADPSVVGDPETDSLRRINAKLLTDERVDLSMLPIADGLTLARKR
modifications: MxSafC_T40P_S173H
B7: M5: quintuple mutant of MxSafC combining mutation T40P/L92Q/W96A/D119P/S173H (protein)
chain: MIHHVELTQSVLQYIRDSSVRDNDILRDLREETSKLPLRPMQIPPEQGQLLSLLVRLIGARKTLEVGVFTGYSTLCAALALPADGRVIACDQSEEAVSIARRYWQRAGVADRIEVRLGPAHHSLEALVGSEHRGTFDLAFIDADKESYDFYYEHALRLVRPGGLIILDNTLWHGKVADPSVVGDPETDSLRRINAKLLTDERVDLSMLPIADGLTLARKR
modifications: MxSafC_M5
notes: quintuple mutant of MxSafC combining mutation T40P/L92Q/W96A/D119P/S173H

Assay: Biotransformation of 3-hydroxyphloretin with lysed E. coli BL21(DE3) cells expressing MxSafC wild-type or variants (LC-MS)
Format: biochemical
Settings: 3 mM 3-hydroxyphloretin, 3 mM S-adenosylmethionine, 25° C., 24 hours; for product specificity towards hesperetin dihydrochalcone: compared with wild-type MxSafC, FIG. 10 dark grey; for enzyme activity (conversion of 3-hydroxyphloretin): FIG. 10 light grey bars
Description: FIG. 10: Biotransformation of 3-Hydroxyphloretin with lysed E. coli BL21 (DE 3) cells, which express MxSafC (wild-type (wt), cf. SEQ ID NOs: 13, 14, 55), or specific variants or mutants thereof (cf. SEQ ID NOs: 56 to 76). Hesperetin dihydrochalcone as well as homoeriodictyol (HED) dihydrochalcone are the products. Conversion of 3-hyroxyphloretin (30HP) shown in light grey, product specificity towards hesperetin dihydrochalcone is shown in dark grey.
MxSafC mutant variants correspond to SEQ ID NOs: 56 to SEQ ID NO: 76. These were synthesized (BioCat GmbH, Heidelberg, Germany) and cloned into pET28a between NcoI and HindIII restriction sites, respectively. SEQ ID NOs: 13, 14 and 55 show the respective wild-type sequence. By artificial design, certain mutants were created to optimize the activity and/or specificity of the MxSafC enzyme. Interesting single, double and quintuple mutants could be identified, as shown in detail in the results in FIG. 10.
First, various positions within MxSafC (SEQ ID NO: 14) were randomly mutated. All mutants were characterized and checked for activity. In a second round, targeted mutations and combinations thereof were tested in an iterative manner to identify suitable mutants for commercial purposes that have a good activity and conversion rate, but at the same time a good or even improved product specificity. Indeed, certain variants could be identified that fulfill these needs.
30 E. coli BL21(DE3) cells, each containing a plasmid from Table 1, were used to inoculate 5 ml of LB medium (Carl Roth GmbH, Karlsruhe, Germany) with the corresponding antibiotic. After incubation for 16 h (37° C., 200 rpm), 20 ml TB medium (Carl Roth GmbH, Karlsruhe, Germany) were inoculated with an OD600 of 0.1 from these cultures. These main cultures were incubated (37° C., 200 rpm) until an OD600 of 0.5-0.8 was achieved. After addition of 1 mM isopropyl-β-D-thiogalactopyranoside, the cultures were incubated for a further 16 h (22° C., 200 rpm). The main culture was centrifuged (10 min, 10,000 rpm), the pelleted cells were decomposed using the B-PER protein extraction reagent (Thermo Fisher Scientific, Bonn, Germany) according to the manufacturers specifications. After additional centrifugation (10 min, 14,000 rpm) the supernatant was mixed with 3 mM 3-hydroxyphloretin, 3 mM S-adenosylmethionine, 0.1 mM MgCl2. The reaction mixture was incubated at 25° C. for 24 hours. After stopping the assay with 20% trichloroacetic acid ([…] final concentration) the sample was centrifuged and the supernatant used for LC-MS analysis.

| Molecule | product specificity towards hesperetin dihydrochalcone | enzyme activity (conversion of 3-hydroxyphloretin) |
| --- | --- | --- |
| B1 | nearly balanced | – |
| B2 | nearly balanced | – |
| B3 | performed better than the wild-type | – |
| B4 | performed better than the wild-type | particularly favorable |
| B5 | performed better than the wild-type | particularly favorable |
| B6 | performed better than the wild-type; also recorded: a good specificity | a technically reasonable activity |
| B7 | performed better than the wild-type | – |
